# B1: monoclonal antibody CD6 (whole IgG) (antibody, V domains shown)
# VH: QVKLQESGGGLVQPKGSLKLSCAASGFTFNTYAMNWVRQAPGKGLEWVARIRSKSNNYATFYADSVKDRFTISRDDSQSMLYLQMHNLKTDDTAMYYCVRPSIYYYASGYLDVWGAGTTVTVSS
# VL: QIVLSQSPAILSASPGEKVTMTCRTSSSVSYMHWYQQKPGSSPKPWIYATSNLASGVPFRFSGSGSGTSYSLTISRVEAEDAATYYCQQWNSNPPTFGGGTKLEIK
# notes: copies: 2 + 2
# B2: CD6 Fab2 (other)
# VH: B1 VH
# VL: B1 VL
# notes: F(ab')2 fragment; copies: 2 + 2
# B3: CD6 Fab (Fab, V domains shown)
# VH: B1 VH
# VL: B1 VL
# Experiments:
# [1] = target: recombinant CA/09 NA (neuraminidase of A/California/07/2009) (Influenza A virus A/California/07/2009 …, UniProt C3W5S3); test: BLI; settings: both partners purified
# [2] = target: NA (CA/09) as antigen of the ELISA of Supplementary Fig. 5 (Influenza A virus A/California/07/2009 …, UniProt C3W6G3, strain); test: ELISA
# [3] = target: recombinant CA/09 NA, thrombin-cleaved (His-tag depleted) (influenza A virus A/California/07/2009 …, UniProt C3W5S3, N-linked glycans seen at Asn88, Asn146 and Asn235); test: crystal structure; settings: both partners purified
Binder,Kd [1] [nM],binding result [2],stoichiometry N [3] [Fabs per NA tetramer]
B1,~95,binds,
B2,,binds,
B3,,binds,4

# Source: article PMC4347215 (Nature Communications, 2015)
